These results are taken from patent US20100056439A1 (DOMANTIS, published 2010).

A word on the EC50: it is the concentration giving half of the maximal effect. Low values mean an effect from little substance, high ones a need for much substance. As usually defined, the IC50 is the concentration at which inhibition is half-maximal. A high value points to a need for much substance.

Where a chain is given by its changes, count along the chain named.

Assay [1] deals with T1, EGFR expressed on A431 cells (human, UniProt P00533 25-1210). Briefly: cell-based or functional assay.
For assay [2], the target named is T1, EGFR expressed on A431 cells. Briefly: EGFR cell receptor binding assay: inhibition of biotinylated EGF binding to A431 cells; IgG-like format.
For another assay, the target named is T2, VEGF-165 (human, UniProt P15692-4 27-191).
T2 construct: The assay text gives no species; also called vascular endothelial growth factor
Briefly: VEGF receptor binding assay (RBA), IgG-like format; receptor (VEGFR1 or VEGFR2) not given.

In assay [3] the target is T1, EGFR expressed on A431 cells. Briefly: EGFR binding assay: inhibition of biotinylated EGF binding to A431 cells; lowest value obtained.
Procedure: All reagents were prepared in PBS/1% BSA. The plate was incubated for 30 minutes at room temperature.

T2 sequence (P15692 other isoform, or with tags, fused parts or gaps limits assumed): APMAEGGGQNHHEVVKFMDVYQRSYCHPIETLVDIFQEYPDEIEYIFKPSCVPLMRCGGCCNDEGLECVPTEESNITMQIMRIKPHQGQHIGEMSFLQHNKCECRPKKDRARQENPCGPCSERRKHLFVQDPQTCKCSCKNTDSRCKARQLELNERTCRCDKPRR

B1: DOM16-39 (other)
VL: DIQMTQSPSSLSASVGDRVTITCRASQWIGILLDWYQQKPGEAPKLLIYYASFLQSGVPSRFSGSGSGTDFTLTISSLQPEDFATYYCQQANPAPLTFGQGTKVEIKR
For B1, the “Kinase Assay IC50 (nM), average” value in assay [1] turned out to be 56.1 nM.

B2: IgG-like format No. 28 (heavy chain V region DOM15-26-501 VH; light chain V region DOM16-39-500 VK) (bispecific antibody, V domains shown)
VH: EVQLLESGGGLVQPGGSLRLSCAASGFTFKAYPIMWVRQAPGKGLEWVSEISPSGSYTYYADSVKGRFTISRDNSKNTLYLQMNSLRAEDTAVYYCAKDPRKFDYWGQGTLVTVSS
VL: B1 VL with L33V, E42K, S67F, Q79H
notes: IgG-like format; also called IgG 28; not shown: human IgG1 heavy chain constant region; human kappa light chain constant region (CK)
Consider B2, for which the EC50 in assay [2] is 43 nM. Moreover, the IC50 with VEGF-165 worked out at 0.8 nM.

B3: DOM16-39-109 (other)
VL: B1 VL with S9T, I31N, S65G, S67F
Turning to B3, the IC50 in assay [3] lay within 0.746 to 1.47 nM. In assay [1], the “Kinase Assay IC50 (nM), average” value is 8.69 nM.

B4: DOM16-39-87 (other)
VL: B1 VL with L33V, T97R
In assay [3], B4 yielded an IC50 of 4.47 to 10.4 nM. The “Kinase Assay IC50 (nM), average” value in assay [1] came out at 54.9 nM.

B5: DOM16-39-107 (other)
VL: B1 VL with L33V
Turning to B5, in assay [3], the IC50 lay within 1.47 to 4.21 nM. Also, in assay [1], the “Kinase Assay IC50 (nM), average” value stood at 20.5 nM.

B6: DOM16-39-100 (other)
VL: B1 VL with L33V, S67F, Q79H
In the case of B6, in assay [3], the half-maximal inhibitory concentration (IC50) fell in the range of 1.01 to 2.76 nM. In assay [1], the “Kinase Assay IC50 (nM), average” value stood at 12.7 nM; the “Kinase Assay IC50 (nM), highest value” is 17.6 nM; the “Kinase Assay IC50 (nM), lowest value” turned out to be 9.14 nM.

B7: DOM16-39-115 (other)
VL: B1 VL with S67Y
As for B7, in assay [3], the IC50 fell in the range of 1.08 to 6.89 nM. In assay [1], the “Kinase Assay IC50 (nM), average” value is 42.4 nM.

B8: IgG-like format No. 30 (heavy chain V region DOM15-26-501 VH; light chain V region DOM16-39-502 VK) (bispecific antibody, V domains shown)
VH: B2 VH
VL: B1 VL with S9T, I31N, E42K, S65G, S67F
notes: IgG-like format; also called IgG 30; not shown: human IgG1 heavy chain constant region; human kappa light chain constant region (CK)
In assay [2], B8 yielded an EC50 of 17 nM. The molecule further showed an IC50 in the assay with VEGF-165 of 0.2 nM.
